Experimental data: article PMC4686876
Where two headings read alike, the source gives them in different places.

Columns and labels:
[1] = molecular target: T1, interferon-gamma (IFNγ) (human) (UniProt P01579); test: SPR; details: SPR (BIAcore T200, biotinylated aptamer on SA chip), 1x PBS (1 mM KH2PO4, 3 mM Na2HPO4) with 205 mM NaCl final, 0.05% NP-40, pH 7.4, 25 °C, IFNγ 1.25-50 nM
T1 sequence: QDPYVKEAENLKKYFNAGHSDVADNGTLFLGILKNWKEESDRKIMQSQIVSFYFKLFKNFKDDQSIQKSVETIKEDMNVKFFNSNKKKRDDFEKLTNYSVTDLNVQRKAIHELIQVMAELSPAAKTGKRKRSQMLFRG

[2] = molecular target: T1, interferon-gamma (IFNγ) (human); details: N = unnatural base Ds at positions 18, 29, 40; SPR (BIAcore T200, biotinylated aptamer on SA chip), 1x PBS (1 mM KH2PO4, 3 mM Na2HPO4) with 205 mM NaCl final, 0.05% NP-40, pH 7.4, 25 °C; IFNγ 1.25-50 nM; cited from earlier work

CCCGCCCGGGTCCGCGAAGCGGTAGGTNTGGGCTAGGCNGCTGGCGGGCGCGAAGCG [aptamer 57mhGC]
Kd ([1]; N = unnatural base Ds at positions 28, 39): 33 pM

TCCACTCGGGTCATTTANTAATGTAGGTNTGGGCTAGGCNGCTAGTGGA [aptamer 49]
Kd ([1]; N = unnatural base Ds at positions 18, 29, 40): 46 pM | Kd [2]: 46 pM
